Experimental data from US20240116985A1, “STAPLED PEPTIDES AND METHODS THEREOF” (priority 2020, published 2024).
Starred links: 1 amine or outer side, 2 acyl side, 3 side chain; linkers in the order of their positions; H or OH if unused. Positions of bridges follow the written chain, without caps; N, C: chain ends. Non-standard residues stand in square brackets, D forms with d. Primed or numbered codes have the meaning given here. PyrS2(3) = (S)-3-amino-1-((pent-4-en-1-yloxy)carbonyl)pyrrolidine-3-carboxylic acid, stapling residue, C=CCCCOC(=O)N1CC[C@@](N[*:1])(C(=O)[*:2])C1; PyrS2″ = (S)-3-amino-1-((pent-4-en-1-yloxy)carbonyl)pyrrolidine-3-carboxylic acid (stapling residue), C=CCCCOC(=O)N1CC[C@@](N[*:1])(C(=O)[*:2])C1; B5(16) = 2-amino-2-(pent-4-en-1-yl)hept-6-enoic acid = 2,2-bis(4-pentenyl)glycine (stitching residue), C=CCCCC(CCCC=C)(N[*:1])C(=O)[*:2]; B5(4) = 2,2-bis(4-pentenyl)glycine = 2-amino-2-(pent-4-en-1-yl)hept-6-enoic acid (stitching residue), C=CCCCC(CCCC=C)(N[*:1])C(=O)[*:2]; B5(5) = 2,2-bis(4-pentenyl)glycine, 2-amino-2-(pent-4-en-1-yl)hept-6-enoic acid (stitching residue), C=CCCCC(CCCC=C)(N[*:1])C(=O)[*:2]; TfeGA = (S)-2-amino-3-((carboxymethyl)(2,2,2-trifluoroethyl)amino)propanoic acid, O=C([C@H](CN(CC(=O)[*:3])CC(F)(F)F)N[*:1])[*:2]; PyrS2 = (S)-3-amino-1-((pent-4-en-1-yloxy)carbonyl)pyrrolidine-3-carboxylic acid, C=CCCCOC(=O)N1CC[C@@](N[*:1])(C(=O)[*:2])C1; B5″ = 2,2-bis(4-pentenyl)glycine, stitching residue, C=CCCCC(CCCC=C)(N[*:1])C(=O)[*:2]; B5 = 2-amino-2-(pent-4-en-1-yl)hept-6-enoic acid, C=CCCCC(CCCC=C)(N[*:1])C(=O)[*:2]; Phe(2-Cl) = N[C@@H](Cc1ccccc1Cl)C(=O)O; Bta = N[C@@H](Cc1csc2ccccc12)C(=O)O; Lys(iPr) = CC(C)NCCCC[C@H](N)C(=O)O; αAllylPro = C=CC[C@@]1(C(=O)O)CCCN1; tBuAla = CC(C)(C)C[C@H](N)C(=O)O; 3Thi = N[C@@H](Cc1ccsc1)C(=O)O; Cha = N[C@@H](CC1CCCCC1)C(=O)O; Cit = NC(=O)NCCC[C@H](N)C(=O)O; S8 = C=CCCCCCC[C@](C)(N)C(=O)O; Leu(ol) = CC(C)C[C@H](N)CO; hSer = N[C@@H](CCO)C(=O)O

Target: full-length beta-Catenin (Uniprot ID P35222) (Homo sapiens (Human)) (UniProt P35222)
Assay: fluorescence polarization competition; 10 nM full-length beta-catenin, 10 nM 5FAM-TCF4(10-53) probe
Target sequence in this assay (P35222 2-781 limits assumed): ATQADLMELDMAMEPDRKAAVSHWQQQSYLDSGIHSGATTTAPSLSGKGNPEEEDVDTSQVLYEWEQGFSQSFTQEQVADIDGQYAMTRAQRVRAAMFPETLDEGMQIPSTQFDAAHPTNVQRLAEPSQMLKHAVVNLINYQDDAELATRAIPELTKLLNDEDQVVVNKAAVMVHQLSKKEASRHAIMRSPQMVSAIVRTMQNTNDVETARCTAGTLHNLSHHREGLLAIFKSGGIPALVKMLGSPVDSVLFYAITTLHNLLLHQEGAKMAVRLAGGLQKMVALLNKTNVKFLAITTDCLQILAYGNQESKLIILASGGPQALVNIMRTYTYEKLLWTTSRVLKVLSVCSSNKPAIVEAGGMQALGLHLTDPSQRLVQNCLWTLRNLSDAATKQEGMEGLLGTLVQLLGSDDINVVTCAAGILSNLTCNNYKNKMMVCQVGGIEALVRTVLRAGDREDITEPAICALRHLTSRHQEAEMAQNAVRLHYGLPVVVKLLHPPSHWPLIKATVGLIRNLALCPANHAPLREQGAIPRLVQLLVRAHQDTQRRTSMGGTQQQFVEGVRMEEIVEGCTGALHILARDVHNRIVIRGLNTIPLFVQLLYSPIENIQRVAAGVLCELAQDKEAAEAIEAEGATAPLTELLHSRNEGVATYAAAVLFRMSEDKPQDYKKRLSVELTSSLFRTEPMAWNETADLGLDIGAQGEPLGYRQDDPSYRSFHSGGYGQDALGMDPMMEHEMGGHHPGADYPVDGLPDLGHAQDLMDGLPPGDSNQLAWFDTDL

IC50 [nM] | Binder
2480 | Ac-[αAllylPro]N[tBuAla][B5(4)]DQ[Lys(iPr)]A[Cha]L[PyrS2]F[Bta]Q-NH2 (staple 1-4, 4-11) [I-1649]
940 | Ac-[αAllylPro]N[tBuAla][B5(4)]DQ[Lys(iPr)]AFL[PyrS2]F[Bta][Lys(iPr)]-NH2 (staple 1-4, 4-11) [I-1645]
640 | Ac-[αAllylPro]N[tBuAla][B5(4)]DQ[Lys(iPr)]AFL[PyrS2]F[Bta][hSer]-NH2 (staple 1-4, 4-11) [I-1646]
822 | Ac-[αAllylPro]N[tBuAla][B5(4)]DQ[Lys(iPr)]AFL[PyrS2]F[Bta]K-NH2 (staple 1-4, 4-11) [I-1643]
10000 | Ac-[αAllylPro]N[tBuAla][B5(4)]DQ[Lys(iPr)]AFL[PyrS2]F[Bta][tBuAla]-NH2 (staple 1-4, 4-11) [I-1644]

Target: full-length beta-Catenin (Uniprot ID P35222) (Homo sapiens (Human)) (UniProt P35222)
Assay: fluorescence polarization competition; full-length beta-catenin, 5FAM-TCF4(10-53) probe as competitor
Target sequence in this assay (P35222 2-781 limits assumed): as above

IC50 [nM] | Binder
559 | Ac-[αAllylPro]L[tBuAla][B5(5)]DDAAFN[PyrS2″][3Thi][Bta]Q-NH2 (staple 1-4, 4-11) [I-1226]
100 | Ac-[αAllylPro][hSer][tBuAla][B5(5)]DDAAFN[PyrS2″][3Thi][Bta]Q-NH2 (staple 1-4, 4-11) [I-1228]
82 | Ac-[αAllylPro]D[tBuAla][B5(4)]D[TfeGA]AAFT[PyrS2″][Phe(2-Cl)][Bta][Leu(ol)] (staple 1-4, 4-11) [I-1243]
134 | Ac-[αAllylPro][hSer][tBuAla][B5(5)]DDAAFL[PyrS2″][3Thi][Bta]Q-NH2 (staple 1-4, 4-11) [I-1229]

Target: full-length beta-Catenin (Uniprot ID P35222) (Homo sapiens (Human)) (UniProt P35222)
Assay: FP competition: displacement of 5FAM-TCF4(10-53) from full-length beta-catenin
Target sequence in this assay (P35222 whole entry): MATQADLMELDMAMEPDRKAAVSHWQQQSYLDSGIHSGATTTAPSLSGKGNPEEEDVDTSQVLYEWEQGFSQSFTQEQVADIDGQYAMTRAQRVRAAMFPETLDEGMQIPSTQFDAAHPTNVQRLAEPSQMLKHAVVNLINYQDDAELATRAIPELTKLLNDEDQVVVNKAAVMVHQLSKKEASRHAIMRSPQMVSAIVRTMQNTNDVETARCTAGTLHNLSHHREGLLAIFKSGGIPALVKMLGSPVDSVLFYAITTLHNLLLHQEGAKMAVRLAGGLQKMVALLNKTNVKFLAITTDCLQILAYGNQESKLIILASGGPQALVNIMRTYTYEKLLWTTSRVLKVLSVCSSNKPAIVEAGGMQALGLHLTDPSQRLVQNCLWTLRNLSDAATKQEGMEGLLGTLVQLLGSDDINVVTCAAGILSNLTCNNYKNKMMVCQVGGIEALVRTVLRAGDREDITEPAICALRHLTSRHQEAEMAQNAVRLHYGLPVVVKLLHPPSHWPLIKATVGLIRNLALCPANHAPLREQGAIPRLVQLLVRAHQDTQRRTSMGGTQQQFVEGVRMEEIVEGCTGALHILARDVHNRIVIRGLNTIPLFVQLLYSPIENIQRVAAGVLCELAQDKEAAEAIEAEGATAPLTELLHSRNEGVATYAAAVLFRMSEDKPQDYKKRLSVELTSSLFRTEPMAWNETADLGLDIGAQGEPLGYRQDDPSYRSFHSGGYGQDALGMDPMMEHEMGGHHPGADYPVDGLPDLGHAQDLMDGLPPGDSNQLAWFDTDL

Binder | EC50 [nM]
Ac-[αAllylPro]D[tBuAla][B5(5)]QDAAFL[PyrS2″][3Thi][Bta]Q-NH2 (staple 1-4, 4-11) [I-1211] | 115
Ac-[αAllylPro]D[tBuAla][B5(5)]LDAAFN[PyrS2″][3Thi][Bta]Q-NH2 (staple 1-4, 4-11) [I-1212] | 8660
Ac-[αAllylPro]D[tBuAla][B5″]NDAAFL[PyrS2(3)][3Thi][Bta]Q-NH2 (staple 1-4, 4-11) [I-1207] | 40
Ac-[αAllylPro]D[tBuAla][B5(5)][hSer]DAAFL[PyrS2″][3Thi][Bta]Q-NH2 (staple 1-4, 4-11) [I-1215] | 216
Ac-[αAllylPro]S[tBuAla][B5(5)]DDAAFN[PyrS2″][3Thi][Bta]Q-NH2 (staple 1-4, 4-11) [I-1222] | 511
Ac-[αAllylPro]D[tBuAla][B5(5)]QDAAFN[PyrS2″][3Thi][Bta]Q-NH2 (staple 1-4, 4-11) [I-1210] | 56
Ac-[αAllylPro]N[tBuAla][B5(4)]DDAAFL[PyrS2″][3Thi][Bta]Q-NH2 (staple 1-4, 4-11) [I-1221] | 14
Ac-[αAllylPro]D[tBuAla][B5″]NDAAFN[PyrS2(3)][3Thi][Bta]Q-NH2 (staple 1-4, 4-11) [I-1206] | 32
Ac-[αAllylPro]D[tBuAla][B5(5)][hSer]DAAFN[PyrS2″][3Thi][Bta]Q-NH2 (staple 1-4, 4-11) [I-1214] | 116
Ac-[αAllylPro]D[tBuAla][B5(5)]SDAAFN[PyrS2″][3Thi][Bta]Q-NH2 (staple 1-4, 4-11) [I-1208] | 349
Ac-[αAllylPro]D[tBuAla][B5(5)]SDAAFL[PyrS2″][3Thi][Bta]Q-NH2 (staple 1-4, 4-11) [I-1209] | 479

Continued, values first:

EC50 [nM] | Binder
389 | Ac-[αAllylPro]Q[tBuAla][B5(5)]DDAAFN[PyrS2″][3Thi][Bta]Q-NH2 (staple 1-4, 4-11) [I-1224]
305 | Ac-[αAllylPro]Q[tBuAla][B5(5)]DDAAFL[PyrS2″][3Thi][Bta]Q-NH2 (staple 1-4, 4-11) [I-1225]
559 | Ac-[αAllylPro]L[tBuAla][B5(5)]DDAAFN[PyrS2″][3Thi][Bta]Q-NH2 (staple 1-4, 4-11) [I-1226]
100 | Ac-[αAllylPro][hSer][tBuAla][B5(5)]DDAAFN[PyrS2″][3Thi][Bta]Q-NH2 (staple 1-4, 4-11) [I-1228]
82 | Ac-[αAllylPro]D[tBuAla][B5(4)]D[TfeGA]AAFT[PyrS2″][Phe(2-Cl)][Bta][Leu(ol)] (staple 1-4, 4-11) [I-1243]
134 | Ac-[αAllylPro][hSer][tBuAla][B5(5)]DDAAFL[PyrS2″][3Thi][Bta]Q-NH2 (staple 1-4, 4-11) [I-1229]
550 | Ac-[αAllylPro]S[tBuAla][B5(5)]DDAAFL[PyrS2″][3Thi][Bta]Q-NH2 (staple 1-4, 4-11) [I-1223]

Target: full-length beta-Catenin (Uniprot ID P35222) (Homo sapiens (Human)) (UniProt P35222)
Assay: fluorescence polarization competition; peptide titrated against 10 nM full-length beta-catenin + 10 nM 5FAM-TCF4(10-53) probe
Target sequence in this assay (P35222 whole entry): as above

EC50 [nM] | Binder
108 | Ac-[αAllylPro]DL[B5]DEAAF[Cit][S8]F[Bta]H-NH2 (staple 1-4, 4-11) [I-616]
273 | Ac-[αAllylPro]DL[B5(4)]DEAAFN[S8]F[Bta]-NH2 (staple 1-4, 4-11; also: earlier eluting HPLC peak (staple isomer)) [I-624]
35 | Ac-[αAllylPro]D[Cha][B5(16)]DEAAFN[S8]F[Bta]Q-NH2 (staple 1-4, 4-11; also: later-eluting staple isomer composition) [I-620]
44 | Ac-[αAllylPro]D[Cha][B5(4)]DEAAFN[S8]F[Bta]Q-NH2 (staple 1-4, 4-11; also: earlier eluting HPLC peak (staple isomer)) [I-619]
58 | Ac-[αAllylPro]DL[B5(4)]DEAAF[Cit][S8]F[Bta]Q-NH2 (staple 1-4, 4-11) [I-621]
50 | Ac-[αAllylPro]D[Cha][B5]DEAAFN[S8]F[Bta]H-NH2 (staple 1-4, 4-11) [I-615]
119 | Ac-[αAllylPro]DL[B5(4)]DEAAFN[S8]F[Bta]-NH2 (staple 1-4, 4-11; also: later eluting HPLC peak (staple isomer)) [I-625]

Target: full-length beta-Catenin (Uniprot ID P35222) (Homo sapiens (Human)) (UniProt P35222)
Assay: fluorescence polarization competition; full-length beta-catenin with 5FAM-TCF4(10-53) probe as competitor
Target sequence in this assay (P35222 whole entry): as above

IC50 [nM] | Binder
108 | Ac-[αAllylPro]DL[B5]DEAAF[Cit][S8]F[Bta]H-NH2 (staple 1-4, 4-11) [I-616]
273 | Ac-[αAllylPro]DL[B5(4)]DEAAFN[S8]F[Bta]-NH2 (staple 1-4, 4-11; also: earlier eluting HPLC peak (staple isomer)) [I-624]
35 | Ac-[αAllylPro]D[Cha][B5(16)]DEAAFN[S8]F[Bta]Q-NH2 (staple 1-4, 4-11; also: later-eluting staple isomer composition) [I-620]
44 | Ac-[αAllylPro]D[Cha][B5(4)]DEAAFN[S8]F[Bta]Q-NH2 (staple 1-4, 4-11; also: earlier eluting HPLC peak (staple isomer)) [I-619]
58 | Ac-[αAllylPro]DL[B5(4)]DEAAF[Cit][S8]F[Bta]Q-NH2 (staple 1-4, 4-11) [I-621]
50 | Ac-[αAllylPro]D[Cha][B5]DEAAFN[S8]F[Bta]H-NH2 (staple 1-4, 4-11) [I-615]
119 | Ac-[αAllylPro]DL[B5(4)]DEAAFN[S8]F[Bta]-NH2 (staple 1-4, 4-11; also: later eluting HPLC peak (staple isomer)) [I-625]
